Experimental data reported in the supplement of paper PMC10065799, “High-throughput profiling of sequence recognition by tyrosine kinases and SH2 domains using bacterial peptide display” (eLife, 2023).

Key:
AncSZ = assay: phosphorylation enrichment, bacterial display (enrichment ratio); higher = better substrate or ligand; peptides without Tyr show the background
EPHB1 = EPHB1 (UniProt P54762); assay: as above
EPHB2 = EPHB2 (UniProt P29323); assay: as above
FGFR1 = FGFR1 (UniProt P11362); assay: as above
FGFR3 = FGFR3 (UniProt P22607); assay: as above
Fer (mouse) = assay: as above
Fes = Fes (UniProt P07332); assay: as above
Fyn = Fyn (UniProt P06241); assay: as above
Hck = Hck (UniProt P08631); assay: as above
Jak2 = Jak2 (UniProt O60674); assay: as above
MERTK = MERTK (UniProt Q12866); assay: as above
c-Abl (mouse) = assay: as above
c-Src = assay: as above
Grb2 SH2 = Grb2 SH2 (UniProt P62993); assay: SH2 binding enrichment of the phosphorylated peptide, bacterial display (enrichment ratio); higher = better substrate or ligand; peptides without Tyr show the background
SHP2-C SH2 = assay: as above
c-Src SH2 = assay: as above
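For SH2 binding enrichment of the phosphorylated peptide, bacterial display in this document: peptide library displayed on the E. coli surface as eCPX fusions, selected cells deep-sequenced, score is each peptide's frequency after selection divided by its frequency in the input.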
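For phosphorylation enrichment, bacterial display in this document: 11-residue human phosphosite peptides and single-mutation variants displayed on the E. coli surface, counted by deep sequencing, each peptide's frequency after selection divided by its frequency in the unselected input library; frequency after pTyr selection over input frequency; kinase dosed for 20-30% of maximal phosphorylation in three min.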

Chain of FGFR1 (P11362 whole entry, looked up): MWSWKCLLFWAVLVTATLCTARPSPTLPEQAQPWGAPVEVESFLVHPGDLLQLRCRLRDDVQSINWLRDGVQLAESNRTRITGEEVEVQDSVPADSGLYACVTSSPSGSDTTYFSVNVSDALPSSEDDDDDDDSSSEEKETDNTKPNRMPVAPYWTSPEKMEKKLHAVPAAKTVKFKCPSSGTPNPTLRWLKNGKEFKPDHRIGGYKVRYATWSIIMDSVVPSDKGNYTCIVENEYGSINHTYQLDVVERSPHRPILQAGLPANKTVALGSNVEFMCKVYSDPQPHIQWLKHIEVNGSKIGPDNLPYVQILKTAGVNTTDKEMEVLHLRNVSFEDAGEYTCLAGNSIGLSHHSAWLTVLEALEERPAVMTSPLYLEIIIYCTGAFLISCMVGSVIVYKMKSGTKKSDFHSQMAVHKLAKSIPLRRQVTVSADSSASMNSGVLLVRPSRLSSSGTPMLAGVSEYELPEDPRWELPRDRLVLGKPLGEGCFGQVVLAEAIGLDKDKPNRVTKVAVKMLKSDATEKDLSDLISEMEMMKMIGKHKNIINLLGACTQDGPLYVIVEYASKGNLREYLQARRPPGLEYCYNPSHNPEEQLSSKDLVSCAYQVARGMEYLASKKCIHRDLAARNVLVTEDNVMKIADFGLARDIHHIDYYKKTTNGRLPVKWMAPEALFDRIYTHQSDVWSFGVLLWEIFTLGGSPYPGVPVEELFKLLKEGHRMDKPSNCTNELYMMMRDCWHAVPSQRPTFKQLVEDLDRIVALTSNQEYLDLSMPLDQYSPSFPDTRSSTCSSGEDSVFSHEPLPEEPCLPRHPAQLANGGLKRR
Chain of EPHB1 (P54762 whole entry, looked up): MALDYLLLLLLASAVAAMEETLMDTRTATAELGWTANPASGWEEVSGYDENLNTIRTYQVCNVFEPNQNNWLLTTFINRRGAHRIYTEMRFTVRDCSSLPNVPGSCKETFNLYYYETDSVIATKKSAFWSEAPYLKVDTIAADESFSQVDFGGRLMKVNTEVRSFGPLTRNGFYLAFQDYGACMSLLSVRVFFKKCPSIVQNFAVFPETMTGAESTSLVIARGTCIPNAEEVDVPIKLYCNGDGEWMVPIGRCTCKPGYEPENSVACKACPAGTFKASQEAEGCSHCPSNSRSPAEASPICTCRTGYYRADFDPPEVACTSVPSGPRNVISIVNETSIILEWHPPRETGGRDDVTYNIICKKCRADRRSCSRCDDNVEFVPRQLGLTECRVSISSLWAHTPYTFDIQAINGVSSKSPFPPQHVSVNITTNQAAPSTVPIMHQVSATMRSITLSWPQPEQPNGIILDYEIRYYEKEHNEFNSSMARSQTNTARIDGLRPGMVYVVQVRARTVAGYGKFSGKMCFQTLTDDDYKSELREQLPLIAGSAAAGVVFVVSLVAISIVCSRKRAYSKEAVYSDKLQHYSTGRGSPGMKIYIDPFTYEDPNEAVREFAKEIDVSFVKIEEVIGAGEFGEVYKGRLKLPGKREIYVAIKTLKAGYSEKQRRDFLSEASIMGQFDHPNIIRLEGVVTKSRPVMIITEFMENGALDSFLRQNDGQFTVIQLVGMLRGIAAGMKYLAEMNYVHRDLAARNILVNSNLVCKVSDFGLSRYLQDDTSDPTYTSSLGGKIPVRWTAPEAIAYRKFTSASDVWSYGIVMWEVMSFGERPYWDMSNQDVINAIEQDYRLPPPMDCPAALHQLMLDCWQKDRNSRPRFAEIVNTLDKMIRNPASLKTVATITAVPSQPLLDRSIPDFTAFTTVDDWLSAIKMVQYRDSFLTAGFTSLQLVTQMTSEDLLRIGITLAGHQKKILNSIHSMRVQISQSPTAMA
Chain of MERTK (Q12866 whole entry, looked up): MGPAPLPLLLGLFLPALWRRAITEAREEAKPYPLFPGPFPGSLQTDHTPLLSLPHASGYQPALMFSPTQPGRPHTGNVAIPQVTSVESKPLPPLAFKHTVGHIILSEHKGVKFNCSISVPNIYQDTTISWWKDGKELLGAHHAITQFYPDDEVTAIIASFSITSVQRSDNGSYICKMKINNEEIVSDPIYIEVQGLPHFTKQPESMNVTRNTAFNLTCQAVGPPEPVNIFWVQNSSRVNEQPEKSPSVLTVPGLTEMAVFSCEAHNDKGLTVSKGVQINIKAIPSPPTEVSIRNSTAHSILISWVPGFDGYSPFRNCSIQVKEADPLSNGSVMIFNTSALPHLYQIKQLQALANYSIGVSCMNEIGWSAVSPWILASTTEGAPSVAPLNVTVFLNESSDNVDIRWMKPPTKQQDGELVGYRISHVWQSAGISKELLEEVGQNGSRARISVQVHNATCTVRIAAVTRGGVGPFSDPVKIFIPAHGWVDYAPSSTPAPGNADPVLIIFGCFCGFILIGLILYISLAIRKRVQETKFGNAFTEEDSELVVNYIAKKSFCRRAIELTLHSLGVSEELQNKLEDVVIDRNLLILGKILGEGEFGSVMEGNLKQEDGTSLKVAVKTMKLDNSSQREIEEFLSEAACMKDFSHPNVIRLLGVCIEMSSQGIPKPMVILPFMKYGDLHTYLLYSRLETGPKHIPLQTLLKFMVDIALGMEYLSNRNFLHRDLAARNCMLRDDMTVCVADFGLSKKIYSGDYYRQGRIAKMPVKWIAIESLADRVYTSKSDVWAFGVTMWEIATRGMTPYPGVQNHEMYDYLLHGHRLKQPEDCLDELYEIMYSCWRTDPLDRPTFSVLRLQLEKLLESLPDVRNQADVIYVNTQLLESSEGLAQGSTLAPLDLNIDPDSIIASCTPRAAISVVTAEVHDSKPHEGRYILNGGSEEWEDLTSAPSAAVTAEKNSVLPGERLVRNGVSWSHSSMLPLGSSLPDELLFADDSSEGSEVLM
Chain of EPHB2 (P29323 whole entry, looked up): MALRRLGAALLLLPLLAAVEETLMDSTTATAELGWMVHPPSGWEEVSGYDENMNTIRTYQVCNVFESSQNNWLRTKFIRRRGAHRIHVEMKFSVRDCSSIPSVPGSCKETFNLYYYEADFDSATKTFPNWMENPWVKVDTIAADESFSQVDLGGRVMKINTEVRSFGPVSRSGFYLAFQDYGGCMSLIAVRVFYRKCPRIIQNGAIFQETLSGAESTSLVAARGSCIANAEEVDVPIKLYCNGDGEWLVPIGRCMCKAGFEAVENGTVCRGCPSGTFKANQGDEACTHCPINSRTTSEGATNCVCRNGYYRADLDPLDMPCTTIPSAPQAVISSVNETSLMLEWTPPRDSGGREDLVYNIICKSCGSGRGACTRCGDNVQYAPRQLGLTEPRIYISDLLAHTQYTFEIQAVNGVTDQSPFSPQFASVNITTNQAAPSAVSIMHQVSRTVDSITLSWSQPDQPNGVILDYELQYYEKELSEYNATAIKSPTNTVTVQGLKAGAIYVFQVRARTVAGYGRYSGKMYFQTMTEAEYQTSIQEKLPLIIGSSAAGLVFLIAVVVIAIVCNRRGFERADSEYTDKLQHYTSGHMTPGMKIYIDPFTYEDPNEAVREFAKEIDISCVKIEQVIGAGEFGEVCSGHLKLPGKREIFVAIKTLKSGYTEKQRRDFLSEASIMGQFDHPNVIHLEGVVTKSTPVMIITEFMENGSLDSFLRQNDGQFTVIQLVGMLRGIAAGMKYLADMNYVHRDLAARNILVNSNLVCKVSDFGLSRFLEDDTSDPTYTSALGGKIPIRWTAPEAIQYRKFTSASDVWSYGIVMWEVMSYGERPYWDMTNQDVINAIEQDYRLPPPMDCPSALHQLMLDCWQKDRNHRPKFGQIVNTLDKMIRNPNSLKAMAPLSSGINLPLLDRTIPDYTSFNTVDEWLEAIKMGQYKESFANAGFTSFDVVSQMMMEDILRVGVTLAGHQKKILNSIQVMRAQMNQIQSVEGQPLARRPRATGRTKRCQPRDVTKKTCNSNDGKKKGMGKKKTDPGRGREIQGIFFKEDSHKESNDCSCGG
Chain of Fes (P07332 whole entry, looked up): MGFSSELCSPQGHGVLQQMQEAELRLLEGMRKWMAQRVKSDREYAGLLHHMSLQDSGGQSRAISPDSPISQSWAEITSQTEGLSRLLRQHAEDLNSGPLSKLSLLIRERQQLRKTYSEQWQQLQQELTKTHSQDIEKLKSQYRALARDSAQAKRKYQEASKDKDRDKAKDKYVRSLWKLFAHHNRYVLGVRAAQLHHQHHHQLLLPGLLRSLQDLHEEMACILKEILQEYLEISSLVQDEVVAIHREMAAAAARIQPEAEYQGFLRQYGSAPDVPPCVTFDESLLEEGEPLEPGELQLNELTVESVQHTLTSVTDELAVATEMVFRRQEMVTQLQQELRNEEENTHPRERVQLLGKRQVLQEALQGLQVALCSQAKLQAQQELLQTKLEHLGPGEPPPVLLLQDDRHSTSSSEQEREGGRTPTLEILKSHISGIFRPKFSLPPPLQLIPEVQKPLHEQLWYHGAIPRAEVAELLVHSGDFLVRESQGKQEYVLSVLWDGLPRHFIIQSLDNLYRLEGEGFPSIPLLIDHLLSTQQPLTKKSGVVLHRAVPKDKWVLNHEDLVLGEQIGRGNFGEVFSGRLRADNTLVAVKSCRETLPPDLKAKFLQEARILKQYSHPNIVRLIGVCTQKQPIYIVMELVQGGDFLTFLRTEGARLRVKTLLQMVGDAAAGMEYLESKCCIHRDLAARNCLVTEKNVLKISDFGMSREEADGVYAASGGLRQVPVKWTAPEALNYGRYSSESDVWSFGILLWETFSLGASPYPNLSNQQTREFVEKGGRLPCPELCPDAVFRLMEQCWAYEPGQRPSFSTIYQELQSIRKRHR

Row | Sequence | SH2 binding enrichment (Grb2 SH2) | SH2 binding enrichment (SHP2-C SH2) | SH2 binding enrichment (c-Src SH2) | phosphorylation enrichment (AncSZ) | phosphorylation enrichment (EPHB1) | phosphorylation enrichment (EPHB2) | phosphorylation enrichment (FGFR1) | phosphorylation enrichment (FGFR3) | phosphorylation enrichment (Fer (mouse)) | phosphorylation enrichment (Fes) | phosphorylation enrichment (Fyn) | phosphorylation enrichment (Hck) | phosphorylation enrichment (Jak2) | phosphorylation enrichment (MERTK) | phosphorylation enrichment (c-Abl (mouse)) | phosphorylation enrichment (c-Src)
1 | NLTVNYKKNLI [SQOR_Y259] | 0.916 | 0.61 | 0.456 | 0.669 | 0.486 | 0.401 | 0.427 | 0.461 | 0.427 | 1.05 | 0.351 | 0.389 | 0.619 | 0.435 | 0.495 | 0.43
2 | TKVVHYRKWIK [KLK2_Y249] | 1.12 | 0.912 | 0.558 | 0.632 | 0.483 | 0.318 | 0.375 | 0.432 | 0.373 | 0.614 | 0.382 | 0.443 | 0.415 | 0.379 | 0.462 | 0.595
3 | PVKAAYQKVVA [HBB_Y131_Q128K] | 0.968 | 0.879 | 0.615 | 0.714 | 1.14 | 0.491 | 0.539 | 0.766 | 0.588 | 0.823 | 0.648 | 0.539 | 0.95 | 0.523 | 2.43 | 0.753
4 | TLSGIYQYNIA [FOXL2_Y81_I84N] | 0.817 | 1.07 | 1.33 | 1.32 | 1.82 | 1.15 | 0.752 | 0.701 | 13.1 | 0.963 | 4.61 | 4.79 | 0.951 | 9.86 | 1.06 | 6.54
5 | TTPGPYRSIFF [MPG_Y71_YF] | 0.997 | 3.79 | 0.688 | 1.07 | 0.493 | 0.546 | 0.551 | 1.07 | 0.368 | 0.923 | 0.514 | 0.521 | 0.626 | 0.663 | 0.706 | 0.728
6 | SVTCTGSPALN [TP53_Y126_Y126G] | 0.796 | 0.625 | 0.388 | 0.792 | 0.539 | 0.487 | 0.422 | 0.511 | 0.423 | 0.972 | 0.422 | 0.459 | 0.741 | 0.385 | 0.612 | 0.387
7 | FSTDFYRVGGH [NTRK2_Y707_YF] | 0.849 | 0.702 | 0.56 | 0.722 | 0.637 | 0.405 | 0.459 | 0.569 | 0.471 | 0.813 | 0.493 | 0.396 | 0.704 | 0.429 | 0.756 | 0.478
8 | KRNSLYSFSDH [CCDC82_Y331_Q327R] | 0.89 | 0.846 | 0.548 | 0.531 | 0.458 | 0.379 | 0.411 | 0.471 | 0.829 | 0.55 | 1.54 | 0.964 | 0.416 | 4.12 | 0.569 | 1.33
9 | SLLLSYFLIKW [NUP160_Y773_P768S_YF] | 1.3 | 0.978 | 1.15 | 1.56 | 0.691 | 0.788 | 0.732 | 1.08 | 0.719 | 1.46 | 0.589 | 0.654 | 1.51 | 0.514 | 1.05 | 0.512
10 | NCFKFYMSDDI [ATRX_Y204_YF] | 0.973 | 0.721 | 0.689 | 1.2 | 0.605 | 0.53 | 0.565 | 0.745 | 0.521 | 1.23 | 0.386 | 0.512 | 1.17 | 0.394 | 0.95 | 0.447
11 | QEIATYRRLQE [KRT14_Y415_L419Q] | 0.702 | 1.21 | 0.475 | 0.926 | 0.568 | 0.721 | 0.699 | 0.512 | 0.506 | 0.803 | 0.578 | 0.482 | 1.51 | 0.7 | 1.1 | 0.717
12 | VRALTYCDLHK [KCNH2_Y827] | 0.885 | 0.968 | 0.715 | 0.74 | 0.603 | 0.704 | 0.452 | 0.591 | 0.531 | 0.874 | 0.499 | 0.582 | 0.605 | 0.453 | 0.656 | 0.392

Continued, in another order:

Row | SH2 binding enrichment (Grb2 SH2) | SH2 binding enrichment (SHP2-C SH2) | SH2 binding enrichment (c-Src SH2) | Sequence | phosphorylation enrichment (AncSZ) | phosphorylation enrichment (EPHB1) | phosphorylation enrichment (EPHB2) | phosphorylation enrichment (FGFR1) | phosphorylation enrichment (FGFR3) | phosphorylation enrichment (Fer (mouse)) | phosphorylation enrichment (Fes) | phosphorylation enrichment (Fyn) | phosphorylation enrichment (Hck) | phosphorylation enrichment (Jak2) | phosphorylation enrichment (MERTK) | phosphorylation enrichment (c-Abl (mouse)) | phosphorylation enrichment (c-Src)
13 | 1.57 | 0.978 | 1.17 | GRKTLYSFFSP [UNG_Y8_Q4R] | 0.529 | 0.709 | 0.603 | 0.571 | 0.641 | 3.82 | 0.825 | 1.13 | 2.26 | 0.91 | 12 | 0.56 | 1.9
14 | 0.743 | 0.686 | 0.626 | ARLEFCENEKK [IRS1_Y47_Y47C_YF] | 0.983 | 0.636 | 0.575 | 0.581 | 0.926 | 0.568 | 1.23 | 0.515 | 0.402 | 1.02 | 0.434 | 0.868 | 0.484
15 | 0.977 | 0.669 | 0.587 | EVKAQNEDIAQ [KRT1_Y358_Y358N] | 0.86 | 0.422 | 0.549 | 0.54 | 0.584 | 0.411 | 0.867 | 0.413 | 0.488 | 0.767 | 0.511 | 0.51 | 0.427
16 | 0.794 | 0.9 | 0.477 | GSSEGYLHMVH [NIPBL_Y247_D246G] | 0.616 | 0.333 | 0.427 | 0.388 | 0.474 | 0.424 | 0.679 | 0.368 | 0.396 | 0.617 | 0.419 | 0.491 | 0.403
17 | 0.918 | 0.99 | 4.44 | FSNPAYYVLEG [INPPL1_Y986_N982S] | 0.834 | 0.614 | 0.509 | 10.1 | 7.89 | 0.426 | 0.848 | 1.32 | 0.778 | 3.92 | 6.51 | 0.591 | 1.43
18 | 0.764 | 0.607 | 0.482 | SLESAYPEVSQ [TTF1_Y357_G360V] | 0.951 | 0.514 | 0.792 | 0.507 | 0.611 | 0.4 | 0.941 | 0.447 | 0.858 | 1.09 | 0.471 | 1.55 | 0.523
19 | 1.15 | 0.553 | 0.453 | YRRITYHNWRH [PDE6B_Y556] | 0.642 | 0.376 | 0.362 | 0.386 | 0.425 | 0.452 | 0.637 | 0.525 | 0.477 | 0.585 | 0.562 | 0.53 | 0.606
20 | 0.962 | 0.644 | 0.613 | FKGKNYKPLDL [RPL35_Y78_K77N_YF] | 0.432 | 0.262 | 0.385 | 0.393 | 0.418 | 0.471 | 0.641 | 0.354 | 0.38 | 0.663 | 0.359 | 0.618 | 0.487
21 | 0.743 | 3.31 | 7.31 | MACDRYVAICS [OR8D4_Y123] | 0.709 | 0.508 | 0.592 | 0.623 | 0.503 | 0.475 | 0.841 | 0.529 | 0.45 | 0.755 | 0.576 | 0.55 | 0.586
22 | 0.806 | 0.626 | 0.68 | LQLLGYRPVFS [CHST6_Y358_YF] | 1.17 | 0.598 | 0.793 | 0.535 | 0.707 | 0.57 | 1.42 | 0.451 | 0.697 | 1.15 | 0.502 | 0.865 | 0.487
23 | 0.784 | 0.679 | 0.455 | RVNSAYQDKVS [ACAN_Y100] | 0.849 | 0.642 | 0.648 | 0.513 | 0.567 | 0.437 | 0.796 | 0.517 | 0.396 | 1.36 | 0.498 | 1.06 | 0.484
24 | 1 | 0.701 | 0.736 | KDHPDYKFQRR [SOX10_Y171_P175R_YF] | 0.696 | 0.338 | 0.387 | 0.338 | 0.423 | 0.612 | 0.631 | 0.321 | 0.382 | 0.615 | 0.389 | 0.667 | 0.446
25 | 0.856 | 0.827 | 1.16 | LLNPRYNLPLD [TOM1L1_Y109] | 1.14 | 0.54 | 0.822 | 0.645 | 0.767 | 0.62 | 0.952 | 0.63 | 0.741 | 0.83 | 1.16 | 1.32 | 0.59
26 | 0.764 | 0.824 | 0.701 | SSFDTYHLSRE [KIR3DL2_Y253_I252T_YF] | 0.756 | 0.528 | 0.616 | 0.615 | 0.595 | 0.539 | 0.842 | 4.75 | 3.51 | 0.7 | 0.613 | 0.613 | 3.31
27 | 0.875 | 0.631 | 0.487 | DSGRDYVSQFE [APOA1_Y53] | 0.914 | 0.685 | 0.492 | 0.462 | 0.673 | 0.478 | 0.922 | 0.489 | 0.529 | 0.665 | 0.409 | 0.601 | 0.403
28 | 0.82 | 0.854 | 0.581 | EFENSYIFDIN [GAB1_Y83] | 1.25 | 0.435 | 0.58 | 0.478 | 0.695 | 0.489 | 1.16 | 0.519 | 0.488 | 1.16 | 0.419 | 0.501 | 0.432
29 | 0.728 | 0.592 | 0.366 | PGVDIYISPNM [PADI3_Y51] | 1.64 | 1.17 | 0.973 | 1.67 | 1.11 | 0.814 | 1.8 | 1.02 | 1.38 | 1.75 | 0.534 | 1.68 | 0.894
